# In patent US20200024330A1:
# Legend:
# Test in all cases: cell-based or functional assay
# [1] = molecular target: HIV-1 VLGCA1 envelope glycoprotein (Env) on pseudovirus (HIV-1)
# [2] = molecular target: HIV-1 MGRM-F1-008 Env (pseudovirus) (HIV-1)
# [3] = molecular target: HIV-1 Env of pseudovirus APV_13, clade B (HIV-1)
# [4] = molecular target: HIV-1 MGRM-C-005 Env (HIV-1)
# [5] = molecular target: HIV-1 Env of isolate MGRM-D-013 (clade D) (HIV-1)
# [6] = molecular target: HIV-1 MGRM-C-024 Env (HIV-1)
# [7] = molecular target: HIV-1 Env of pseudovirus CAAN.A2 (Acute), clade B (HIV-1)
# [8] = molecular target: HIV-1 Env of isolate MGRM-G-025 (clade G pseudovirus) (HIV-1)
# [9] = molecular target: HIV-1 Env of isolate MGRM-D-003 (clade D) (HIV-1)
# [10] = molecular target: HIV-1 MGRM-F1-020 Env (pseudovirus) (HIV-1)
# [11] = molecular target: HIV-1 Env of isolate MGRM-D-008 (clade D) (HIV-1)
# [12] = molecular target: HIV-1 MGRM-F1-015 Env (pseudovirus) (HIV-1)
# [13] = molecular target: HIV-1 MGRM-A-006 envelope glycoprotein (Env) (HIV-1)
# [14] = molecular target: HIV-1 MGRM-F1-021 Env (pseudovirus) (HIV-1)
# [15] = molecular target: HIV-1 MGRM-F1-014 Env (pseudovirus) (HIV-1)
# [16] = molecular target: HIV-1 MGRM-C-023 Env (HIV-1)
# [17] = molecular target: HIV-1 LAVI_C22 Env (HIV-1)
# [18] = molecular target: HIV-1 Env of isolate MGRM-D-018 (HIV-1)
# [19] = molecular target: HIV-1 Env of isolate MGRM-AG-006 (CRF_AG), on pseudovirus (HIV-1)
# [20] = molecular target: HIV-1 JR-CSF Env D113A (HIV-1 (isolate JR-CSF)) (UniProt P20871)
# [21] = molecular target: HIV-1 Env of isolate MGRM-G-024 (HIV-1)
# [22] = molecular target: HIV-1 Env of isolate MGRM-F1-016 (subtype F), on pseudovirus (HIV-1)
# [23] = molecular target: HIV-1 Env of isolate MGRM-A-013 (clade A), on pseudovirus (HIV-1)
# [24] = molecular target: HIV-1 Env of isolate MGRM-C-020 (HIV-1)
# [25] = molecular target: HIV-1 Env of isolate MGRM-C-009 (HIV-1)
# [26] = molecular target: HIV-1 Env of isolate MGRM-F1-004 (subtype F), on pseudovirus (HIV-1)
# [27] = molecular target: HIV-1 Env of isolate MGRM-C-006 (HIV-1)
# [28] = molecular target: HIV-1 Env of isolate TRJ04551.58 (HIV-1)
# [29] = molecular target: HIV-1 Env of isolate THR0.18 (HIV-1)
# [30] = molecular target: HIV-1 Env of isolate MGRM-C-015 (HIV-1)
# Sequence of 1443_C16 (PG16) (TCN-116) (antibody) (VH): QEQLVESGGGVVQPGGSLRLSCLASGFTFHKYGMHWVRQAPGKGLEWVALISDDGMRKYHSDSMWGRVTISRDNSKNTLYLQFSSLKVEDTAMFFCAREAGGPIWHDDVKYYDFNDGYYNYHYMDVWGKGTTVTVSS
# Sequence of 1443_C16 (PG16) (TCN-116) (antibody) (VL): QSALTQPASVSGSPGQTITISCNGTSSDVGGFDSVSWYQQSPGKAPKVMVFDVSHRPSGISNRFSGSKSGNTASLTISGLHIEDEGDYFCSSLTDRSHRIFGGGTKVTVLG
Substance,"IC50 (µg/ml), pseudovirus neutralization [1] [µg/mL]","IC50 (µg/ml), pseudovirus neutralization [2] [µg/mL]","IC50 (µg/ml), pseudovirus neutralization [3] [µg/mL]",IC50 [4] [µg/mL],"IC50 (µg/ml), pseudovirus neutralization [5] [µg/mL]",IC50 [6] [µg/mL],"IC50 (µg/ml), pseudovirus neutralization [7] [µg/mL]","IC50 (µg/ml), pseudovirus neutralization [8] [µg/mL]","IC50 (µg/ml), pseudovirus neutralization [9] [µg/mL]","IC50 (µg/ml), pseudovirus neutralization [10] [µg/mL]","IC50 (µg/ml), pseudovirus neutralization [11] [µg/mL]","IC50 (µg/ml), pseudovirus neutralization [12] [µg/mL]","IC50 (µg/ml), pseudovirus neutralization [13] [µg/mL]","IC50 (µg/ml), pseudovirus neutralization [14] [µg/mL]","IC50 (µg/ml), pseudovirus neutralization [15] [µg/mL]",IC50 [16] [µg/mL],IC50 [17] [µg/mL],other results
b12 (antibody),> 50,> 50,> 50,2.66,> 50,> 50,> 50,> 50,> 50,> 50,> 50,> 50,13.6,> 50,> 50,13.9,7.64,–
4E10 (antibody),4.58,2.75,7.33,16.4,5.38,22.6,17.9,1.7,2.49,0.66,42.9,0.53,9.87,1.87,7.36,1.95,2.02,–
2F5 (antibody),3.9,1.61,3.81,> 50,2.12,> 50,23.1,> 50,> 50,0.59,> 50,0.1,15.7,1.37,15.1,> 50,> 50,–
5147_N06 (PGT-130) (antibody),–,–,–,–,–,–,–,–,–,–,–,–,–,–,–,–,–,"IC50 [18]: 0.049 µg/mL; IC50, single-round pseudovirus neutralization [19]: 0.009 µg/mL; Fold IC50 increase relative to wild-type [20]: 0.8 fold; IC50, pseudovirus neutralization [21]: 5.84 µg/mL; IC50, pseudovirus neutralization [22]: > 50 µg/mL; IC50, single-round pseudovirus neutralization [23]: > 50 µg/mL; IC50 [24]: > 50 µg/mL; IC50 [25]: > 50 µg/mL; IC50, pseudovirus neutralization [26]: 0.023 µg/mL; IC50 [27]: 0.095 µg/mL; IC50 [28]: 0.023 µg/mL; IC50 [29]: > 50 µg/mL; IC50 [30]: 0.344 µg/mL"
1495_C14 (PGC14) (antibody),> 50,> 50,> 50,> 50,> 50,> 50,> 50,> 50,> 50,> 50,> 50,> 50,> 50,46,> 50,> 50,25,–
1443_C16 (PG16) (TCN-116) (antibody),0.18,> 50,> 50,2.55,0.11,0.04,8.83,> 50,0.01,4.35,> 50,> 50,> 50,> 50,0.01,0.09,0.02,–
2G12 (antibody),> 50,> 50,9.24,> 50,> 50,> 50,> 50,31.9,> 50,> 50,> 50,> 50,13.8,14.1,> 50,> 50,> 50,–
